What was measured:
Human CD47-C33G [1] = target: T1, Human CD47-C33G (human, UniProt Q08722 19-135); experiment: SPR, IgG captured, CD47 in flow; exp 2;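 also: IgG from HEK293 cell supernatants tested by SPR on a BIAcore T200, C33G mutein prevents IgV homodimers for monovalent affinity, KD derived from association and dissociation rates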
T1 construct: also called CD47 mutein with C33G mutation

[2] = target: T2, wild type human CD47 (Acro Biosystems, cat. no. CD7-H5227) (human, UniProt Q08722 19-139); experiment: SPR, IgG captured, CD47 in flow; exp 2;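 also: IgG from HEK293 cell supernatants tested by SPR on a BIAcore T200, C33G mutein prevents IgV homodimers for monovalent affinity, KD derived from association and dissociation rates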
T2 construct: Bought protein used as SPR analyte; also called Human CD47 wt; wild-type CD47
T2 sequence (Q08722 19-139 limits assumed): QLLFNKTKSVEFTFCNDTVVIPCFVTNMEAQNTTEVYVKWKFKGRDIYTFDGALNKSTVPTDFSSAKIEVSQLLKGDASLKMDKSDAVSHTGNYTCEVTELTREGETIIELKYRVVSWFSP

Human CD47-C33G [3] = target: T1, Human CD47-C33G; experiment: SPR, IgG captured, CD47 in flow; exp 1;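 also: biacore T200 SPR using IgG from supernatants of transfected HEK293 cells, rate constants fitted to association and dissociation curves, Kd derived from koff over kon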
[4] = target: T2, wild type human CD47 (Acro Biosystems, …); experiment: SPR, IgG captured, CD47 in flow; exp 1;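 also: biacore T200 SPR using IgG from supernatants of transfected HEK293 cells, rate constants fitted to association and dissociation curves, Kd derived from koff over kon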
Human CD47-C33G [5] = target: T1, Human CD47-C33G; experiment: SPR, IgG captured, CD47 in flow; exp 3;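 also: biacore T200 SPR with antibodies taken from supernatants of transfected HEK293 cells, C33G mutein avoiding IgV homodimers for monovalent affinity, Kd derived from association and dissociation rate constants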
[6] = target: T2, wild type human CD47 (Acro Biosystems, …); experiment: SPR, IgG captured, CD47 in flow; exp 3;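 also: biacore T200 SPR with antibodies taken from supernatants of transfected HEK293 cells, C33G mutein avoiding IgV homodimers for monovalent affinity, Kd derived from association and dissociation rate constants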

T1 sequence (Q08722 19-135 C33G limits assumed): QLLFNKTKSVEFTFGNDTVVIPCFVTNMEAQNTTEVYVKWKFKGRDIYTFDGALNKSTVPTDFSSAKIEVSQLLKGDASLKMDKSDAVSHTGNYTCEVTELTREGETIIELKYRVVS

| Kd (Human CD47-C33G [1]) [nM] | koff (Human CD47-C33G [1]) [s⁻¹] | kon (Human CD47-C33G [1]) [M⁻¹ s⁻¹] | Kd [2] [nM] | koff [2] [s⁻¹] | kon [2] [M⁻¹ s⁻¹] | Kd (Human CD47-C33G [3]) [nM] | koff (Human CD47-C33G [3]) [s⁻¹] | kon (Human CD47-C33G [3]) [M⁻¹ s⁻¹] | Kd [4] [nM] | koff [4] [s⁻¹] | kon [4] [M⁻¹ s⁻¹] | Kd (Human CD47-C33G [5]) [nM] | koff (Human CD47-C33G [5]) [s⁻¹] | kon (Human CD47-C33G [5]) [M⁻¹ s⁻¹] | Kd [6] [nM] | koff [6] [s⁻¹] | kon [6] [M⁻¹ s⁻¹] | Binder |
| --- | --- | --- | --- | --- | --- | --- | --- | --- | --- | --- | --- | --- | --- | --- | --- | --- | --- | --- |
| 3.9 | 0.0012 | 310000 | 0.82 | 0.00059 | 720000 | 3.4 | 0.0012 | 340000 | 0.83 | 0.00065 | 780000 | – | – | – | – | – | – | 108VH5 / 108VL1.M5 (antibody, human IgG4 S228P, kappa, V domains shown, Full-length IgG4 (S228P), kappa; also called VH5 VL1.M5) VH: EVQLVQSGAEVKKPGASVKVSCKASGYSFTHHWIHWVRQAPGQGLEWMGMIDPSDSETRLSQKFKDRVTMTRDTSTSTVYMELSSLRSEDTAVYYCARLGRYYFDYWGQGTLVTVSS VL: EIVLTQSPATLSLSPGERATLSCRASQSVSSYLAWYQQKPGQAPRLLIYGASNRATGIPARFSGSGSGTDFTLTISSLEPEDFAVYYCGESYGHLYTFGGGTKVEIKR |
| 14 | 0.0037 | 260000 | 2.6 | 0.0018 | 690000 | – | – | – | – | – | – | – | – | – | – | – | – | 108VH5.M14 / 108VL1.M5 (antibody, human IgG4 S228P, kappa, V domains shown, Full-length IgG4 (S228P), kappa; also called VH5.M14 VL1.M5) VH: EVQLVQSGAEVKKPGASVKVSCKASGYTFTHHWIHWVRQAPGQGLEWMGMIDASDGETRYAQKFQGRVTMTRDTSTSTVYMELSSLRSEDTAVYYCARLGRYYFDYWGQGTLVTVSS VL: EIVLTQSPATLSLSPGERATLSCRASQSVSSYLAWYQQKPGQAPRLLIYGASNRATGIPARFSGSGSGTDFTLTISSLEPEDFAVYYCGESYGHLYTFGGGTKVEIKR |
| 15 | 0.0041 | 280000 | 2.7 | 0.002 | 730000 | – | – | – | – | – | – | – | – | – | – | – | – | 108VH5.M12 / 108VL1.M5 (antibody, human IgG4 S228P, kappa, V domains shown, Full-length IgG4 (S228P), kappa; also called VH5.M12 VL1.M5) VH: EVQLVQSGAEVKKPGASVKVSCKASGYTFTHHWMHWVRQAPGQGLEWMGMIDASDSETRYAQKFQGRVTMTRDTSTSTVYMELSSLRSEDTAVYYCARLGRYYFDYWGQGTLVTVSS VL: EIVLTQSPATLSLSPGERATLSCRASQSVSSYLAWYQQKPGQAPRLLIYGASNRATGIPARFSGSGSGTDFTLTISSLEPEDFAVYYCGESYGHLYTFGGGTKVEIKR |
| – | – | – | – | – | – | – | – | – | – | – | – | 1200 | 0.087 | 75000 | 12 | 0.002 | 170000 | 108VH5.M18 / 108VL1.M5 (antibody, human IgG4 S228P, kappa, V domains shown, Full-length IgG4 (S228P), kappa; also called VH5.M18 VL1.M5) VH: EVQLVQSGAEVKKPGASVKVSCKASGYTFTHHWMHWVRQAPGQGLEWMGMIDASESETRYAQKFQGRVTMTRDTSTSTVYMELSSLRSEDTAVYYCARLGRYYFDYWGQGTLVTVSS VL: EIVLTQSPATLSLSPGERATLSCRASQSVSSYLAWYQQKPGQAPRLLIYGASNRATGIPARFSGSGSGTDFTLTISSLEPEDFAVYYCGESYGHLYTFGGGTKVEIKR |

From patent publication US20260132197A1 (NANJING LEGEND BIOTECH, published 2026)
